The series concerns the molecule itself. In words: AUC; ultracentrifugation of Sir2a; no details given (to be detailed in a later publication).

The results in this text go back to paper PMC5139991, “SEC-SANS: size exclusion chromatography combined in situ with small-angle neutron scattering1” (Journal of Applied Crystallography, 2016).

B1: Plasmodium falciparum Sir2a (enzyme, UniProt Q8IE47 1-273, looked up)
chain: MGNLMISFLKKDTQSITLEELAKIIKKCKHVVALTGSGTSAESNIPSFRGSSNSIWSKYDPRIYGTIWGFWKYPEKIWEVIRDISSDYEIEINNGHVALSTLESLGYLKSVVTQNVDGLHEASGNTKVISLHGNVFEAVCCTCNKIVKLNKIMLQKTSHFMHQLPPECPCGGIFKPNIILFGEVVSSDLLKEAEEEIAKCDLLLVIGTSSTVSTATNLCHFACKKKKKIVEINISKTYITNKMSDYHVCAKFSELTKVANILKGSSEKNKKIM
notes: Sir2a of Plasmodium falciparum, codon-optimized gene PF3D7_1328800 cloned into pET-28a; printed size 34 kDa; Protonated protein; The His tag is inferred from pET-28a and the TALON purification; removal of the tag is not mentioned; source: E. coli BL21 DE3, purified (HiTrap TALON, gel filtration)
Broadly, the stoichiometry N is a count of units in the complex or per binding partner. Regarding B1, the “stoichiometry N” value worked out at 3.
